Experimental data published in patent US6900177.
Non-standard residues stand in square brackets, D forms with d. No end group written: not given here.

Target: T1, lecithin:cholesterol acyltransferase (LCAT), purified from human plasma (human, UniProt P04180 25-440)
T1 sequence (looked up): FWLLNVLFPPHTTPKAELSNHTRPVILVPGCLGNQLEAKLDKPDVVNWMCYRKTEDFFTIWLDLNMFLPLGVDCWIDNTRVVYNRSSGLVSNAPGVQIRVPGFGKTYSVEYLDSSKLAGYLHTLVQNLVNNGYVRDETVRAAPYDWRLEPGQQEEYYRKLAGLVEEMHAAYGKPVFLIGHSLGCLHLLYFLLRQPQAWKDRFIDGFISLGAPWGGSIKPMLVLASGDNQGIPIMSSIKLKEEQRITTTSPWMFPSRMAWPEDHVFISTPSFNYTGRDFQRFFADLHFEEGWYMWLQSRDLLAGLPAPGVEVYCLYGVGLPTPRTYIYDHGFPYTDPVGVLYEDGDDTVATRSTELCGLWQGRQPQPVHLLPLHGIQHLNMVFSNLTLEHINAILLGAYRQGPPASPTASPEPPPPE
Assay: cell-based or functional assay

In the case of [dP][dV]LDLFRELLNELLEALKQKLK [peptide 48], the “ACTIVITY (%) LCAT” value is reported as 22%.
